The values below come from publication PMC12032424.

The target of one experiment is TDP-43 1-414 (UniProt Q13148). Kind of experiment: sedimentation assay, supernatant by SDS-PAGE. Conditions: reference: unmodified TDP1-414; sites S48.
Experiment [1] concerns the target TDP-43 NTD, 1-80 (UniProt Q13148). As to the kind of experiment: size exclusion chromatography. Conditions: reference: unmodified TDP1-80; sites S48.
For experiment [2] the target is unchanged. Kind of experiment: BS3 crosslinking, SDS-PAGE. The settings on record: reference: unmodified TDP1-80; sites S48.

Consider “TDP-43 1-414 (from UniProt Q13148) TDP1-414(pS48)”, for which the “binding against the reference” value in the experiment with TDP-43 1-414 is “weaker”.

With “TDP-43 NTD, 1-80 (from UniProt Q13148) TDP1-80(pS48)”, the “binding against the reference” value is on record as “weaker” with TDP-43 NTD, 1-80 [1] and “weaker” with TDP-43 NTD, 1-80 [2].
